Columns and labels:
[1] = target: CD16A on human primary NK cells (human) (UniProt P08637); assay: flow cytometry (MFI, PE-anti-human Fc) on human primary NK cells, donor SLB190084
CD16A-158V-G129D (human) = assay: BLI (ForteBio), method of Example 3, mutant antigen
[2] = target: human CD16A (type 158V) on GS-CHO cells (human) (UniProt P08637); assay: flow cytometry (MFI, PE-anti-human Fc) on GS-CHO cells expressing human CD16A (type 158V)
[3] = target: cynomolgus monkey CD16A protein (cynomolgus monkey) (UniProt Q8SPW2); assay: BLI (ForteBio), antibody on Protein A sensor, antigen 100 nM, 1:1 model
[4] = target: human CD16A-158V protein (human) (UniProt P08637); assay: as above
[5] = target: human CD16A-158F protein (human) (UniProt P08637); assay: as above
[6] = target: CD16A on human primary NK cells (human) (UniProt P08637); assay: flow cytometry (MFI, PE-anti-human Fc) on human primary NK cells, donor SLB190071

Chain of CD16A on human primary NK cells (human) (P08637 17-254): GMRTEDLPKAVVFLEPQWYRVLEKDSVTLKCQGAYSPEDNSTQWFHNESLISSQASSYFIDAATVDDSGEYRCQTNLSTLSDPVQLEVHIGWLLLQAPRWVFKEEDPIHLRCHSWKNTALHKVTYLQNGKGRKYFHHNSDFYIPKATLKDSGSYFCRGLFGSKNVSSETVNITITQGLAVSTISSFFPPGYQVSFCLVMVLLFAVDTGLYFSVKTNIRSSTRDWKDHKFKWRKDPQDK
Chain of CD16A-158V-G129D (human) (chain, as listed by the source G129D G129D limits assumed): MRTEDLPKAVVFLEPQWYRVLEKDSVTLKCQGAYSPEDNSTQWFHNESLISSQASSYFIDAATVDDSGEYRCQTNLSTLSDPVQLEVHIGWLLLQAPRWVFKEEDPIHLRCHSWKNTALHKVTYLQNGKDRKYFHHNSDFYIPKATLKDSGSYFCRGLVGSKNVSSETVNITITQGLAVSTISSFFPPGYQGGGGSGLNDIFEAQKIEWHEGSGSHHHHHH
Chain of human CD16A-158V protein (human) (P08637 17-208 F176V limits assumed): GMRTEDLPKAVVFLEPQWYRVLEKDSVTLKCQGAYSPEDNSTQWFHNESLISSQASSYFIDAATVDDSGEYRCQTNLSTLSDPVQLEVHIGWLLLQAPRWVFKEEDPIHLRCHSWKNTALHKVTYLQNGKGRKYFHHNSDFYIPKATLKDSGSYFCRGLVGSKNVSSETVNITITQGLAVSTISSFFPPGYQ
Chain of human CD16A-158F protein (human) (P08637 17-208 limits assumed): as the sequence (P08637 17-208 F176V limits assumed) above, with V160F counted along it
Chain of cynomolgus monkey CD16A protein (cynomolgus monkey) (Q8SPW2 17-208 limits assumed): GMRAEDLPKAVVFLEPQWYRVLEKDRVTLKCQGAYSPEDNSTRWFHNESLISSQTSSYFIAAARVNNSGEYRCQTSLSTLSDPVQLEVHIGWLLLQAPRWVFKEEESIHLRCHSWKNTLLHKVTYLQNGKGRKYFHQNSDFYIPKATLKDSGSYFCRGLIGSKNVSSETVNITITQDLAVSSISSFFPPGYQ
Chain of human CD16A (type 158V) on GS-CHO cells (human) (P08637 17-254 F176V): as the sequence (P08637 17-254) above, with F160V counted along it

EC50 [1]: 15.6 nM | Kd (CD16A-158V-G129D (human)): 4.63 nM | EC50 [2]: 11.8 nM | Kd [3]: 7.94 nM | Kd [4]: 7.75 nM | Kd [5]: 4.75 nM | EC50 [6]: 2.64 nM
B1: 4LS21 antibody (CD16A humanized antibody 4LS21 from Affimed Therapeutics AG, in the form of ScFv-Fc) (Fc fusion, not shown: a dimerising Fc or GST; small tags and cut ends)
VH: QVQLVQSGAEVKKPGESLKVSCKASGYTFTSYYMHWVRQAPGQGLEWMGAIEPMYGSTSYAQKFQGRVTMTRDTSTSTVYMELSSLRSEDTAVYYCARGSAYYYDFADYWGQGTLVTVSS
VL: SYVLTQPSSVSVAPGQTATISCGGHNIGSKNVHWYQQRPGQSPVLVIYQDNKRPSGIPERFSGSNSGNTATLTISGTQAMDEADYYCQVWDNYSVLFGGGTKLTVL
